Test system: MS2 coat protein
Test: apparent KD of MS2 coat protein; higher = weaker reporter binding
Conditions: Eterna round: R107; input ligand: theophylline 20 uM
Outline: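 Apparent KD stands for the median, per design, of fits to normalised cluster binding curves. The curves came from titrating on-chip-transcribed RNA switches on Illumina sequencing clusters with SNAP-549-labelled MS2 coat protein, twofold from 0.7 or 1.5 nM to 3 µM. Buffer was 100 mM Tris-HCl pH 7.5, 80 mM KCl, 4 mM MgCl2, without or with constant ligand.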

Q: Which “apparent KD of MS2 coat protein” value does the source give for “AGAUAACAUGGUUUAAUAAGAUAAACUGAUACCAGUGUAUAUAAUCACCCUUGGCAGCAGCAACAUGAGGAUCACCCAUGUAAUA [JR_SSTheophyA_Sub014]” here?
A: The value was 19.6 nM.

Q: With “UGUGUAAUUGUCUGGUAGAAUUAUUUGUUUCGAGGACCGGUACGGCCGCCACUCGAUAUUUACAUGAGGAUCACCCAUGUUAGCU [JR_SSTryptoA_Sub004]” as the sequence, how does the “apparent KD of MS2 coat protein” value read?
A: Its value is 14.3 nM.

Q: How did the “apparent KD of MS2 coat protein” value turn out when “AAACAGUCGGACAUGAGGAUCACCCAUGUGCGAGGACCGGUACGGCCGCCACUCGACAAGGGCGGUCCCGAAGCAAACAUACGCG [Enedquceor]” was run?
A: Its value is 33.7 nM.

Q: With “UGUUUCGCGGGCGAUACCAGCUUGAUCGUACUGGCCUGGUACAUGAGGAUCACCCAUGUAAGCCCUUGGCAGCGCGCGCGAGACG [#1 Exclusion - Theophylline B Attempt #3 (HarryS)]” as the sequence, how does the “apparent KD of MS2 coat protein” value read?
A: The value was 18.9 nM.

Q: How did the “apparent KD of MS2 coat protein” value turn out when “GGUGGCGGGACUGAUACCAGCCACCACCGAUAGACCACAUGAGGAUCACCCAUGUUGGGUGGCCCUUGGCAGCAGUCUUGCUGCC [#1 Same State - Theophylline B Attempt #12 (HarryS)]” was run?
A: Its value is 432 nM.

Q: With “AGUAUCAGUGGAAGGAGCGUCGCGAAUGCCACAUGAGGAUCACCCAUGUCGCCUUGAGCGCGACAGGUAGGUCGCCACGGUAGGC [SS-ArgB3]” as the sequence, how does the “apparent KD of MS2 coat protein” value read?
A: The value was 174 nM.

Q: For “GCCGCGGCCGGAAUAAACAUGGGUAAAUAACGAGGACCGGUACGGCCGCCACUCGAGAUAAAUAACAUGAGGAUCACCCAUGUAC [Exclusion Tryp A GF11]”, which “apparent KD of MS2 coat protein” value is on record?
A: The value was 111 nM.

Q: “CUUCGCAUAGGAAAACUAUGUGAAGAAAAUCGAGGACCGGUACGGCCGCCACUCGUCCUCAACAUGAGGAUCACCCAUGUAAUAA [Mat - Exclusion - Trytophan A - D6]” was tested. Which “apparent KD of MS2 coat protein” value did it give?
A: Its value is 21.2 nM.

Q: How did the “apparent KD of MS2 coat protein” value turn out when “CGUCGAGACUGAAGGAGCGAGAUAACAACAUUGGGUCUCAACAUGAGGAUCACCCAUGUAUCUCAGGUAGGUCGCGGUGUCACCG [Exclusion Arginine B GF20]” was run?
A: Its value is 302 nM.

Q: Which “apparent KD of MS2 coat protein” value does the source give for “AACAUGAGGAUCACCCAUGUGUCCUCGAAACGAGGACCGGUACGGCCGCCACUCGAAAAGGUGUUGACGAAAAGUCAGCACCAAA [Mat - Exclusion - Trytophan A - D16]” here?
A: Its value is 451 nM.

Q: Which “apparent KD of MS2 coat protein” value does the source give for “AAACGUUGCUCAGAUACCAGACAUGAGGAUCACCCAUGUACCAAGGUACCCGAAAGGAAUGUCCCUUGGCAGCUGAGCAACGAAA [MAT - Exclusion Theophlline B - Mod of Eli - D21]” here?
A: Its value is 11.9 nM.

Q: “GGCUGCGAUGGCGGAAAUUAUUUACAUAGGCGAGGACCGGUACGGCCGCCACUCGAACGUACAUGAGGAUCACCCAUGUGAUAAU [theeternabot_sameState_MS2_Trp_A_1]” was tested. Which “apparent KD of MS2 coat protein” value did it give?
A: Its value is 59.9 nM.

Q: “AGCGACAUGCGUGAUACCAGCUACAUGAGGAUCACCCAUGUACGUCAGAAAUGACUGUGUAGCCCUUGGCAGCAUAAUGCAUGUC [Exclusion - Theophylline B (Freestyle 19)]” was tested. Which “apparent KD of MS2 coat protein” value did it give?
A: The value was 60.6 nM.

Q: With “UCGCUCUGGGUGGGAUCCGGAGAUGUGGAAGGAGCGCUGGUAACAGCAGGUAGGUCGCCAACGGACAUGAGGAUCACCCAUGUAC [Same State - Arginine A (Freestyle 17)]” as the sequence, how does the “apparent KD of MS2 coat protein” value read?
A: The value was 40 nM.

Q: Which “apparent KD of MS2 coat protein” value does the source give for “UGACAUUGCUCAGAUACCAGACAUGAGCAUCAGCCAUGUGCCAACAAGUACAAAAUAAAUGUCCCUUGGCAGCUGAGCAAUGUCU [TheoBX 23 #MS2Left #AlternativeMS2 #Theo22]” here?
A: Its value is 16 nM.

Q: Which “apparent KD of MS2 coat protein” value does the source give for “GAAAGAUGAGGCGGCAGUACCGAUGUCGAUACCAGCAUGAACAAAUGCCCUUGGCAGCGACAUGAGGAUCACCCAUGUAUCUGCG [Reraatlaan]” here?
A: Its value is 16.1 nM.

Q: For “UACAUGAGGAUCACCCAUGUGUAGAGGGAUACCAGUGACAGUAAGCGCCCUUGGCAGCCCGUGAACAAUGGGUGAGCUAAAUAGU [#18 Exclusion-TheophyllineA]”, which “apparent KD of MS2 coat protein” value is on record?
A: The value was 75.5 nM.

Q: For “GGGUGGUAGGCGGCCGCCACUGAUUUUCAUAUAUAUAUAACAUGAGGAUCACCCAUGUAGAUAUGCAGGACCGGGCCUGUUGUUU [aaaL]”, which “apparent KD of MS2 coat protein” value is on record?
A: Its value is 39.6 nM.

Q: With “UGUCAUGGAAACAUGACAGGUCUUACCGGUCGAGGACCGGUACGGCCGCCACUCGAUUGGUGGCACAUGAGGAUCACCCAUGUUA [SS Tryp A #16]” as the sequence, how does the “apparent KD of MS2 coat protein” value read?
A: The value was 47.3 nM.

Same assay, conditions: Eterna round: R107; input ligand: theophylline 2 mM

Q: How did the “apparent KD of MS2 coat protein” value turn out when “CGAUCCUGCAGGGAUACCAGCGCCGCUUGAUAACUGUGCACAUGAGGAUCACCCAUGUAGCGCCCUUGGCAGCCCAGCUAGAGGG [Same State Theophylline B GF25]” was run?
A: The value was 13.9 nM.

Q: “AGCUACUCGUUCCUCAUGUACGAGUGGCAACGAGGACCGGUACGGCCGCCACUCGAAUAAACAUGAGGAUCACCCAUGUACAAAU [T''-M-T'-T-MS2 - Design 8]” was tested. Which “apparent KD of MS2 coat protein” value did it give?
A: The value was 179 nM.

Q: “GCAGACAUGAGGAUCACCCAUGUACUUGGGCGAGGACCGGUACGGCCGCCACUCGUAGACUUGACGAGGAAAUGUUCUCGCAGGG [theeternabot_sameState_MS2_Trp_A_24]” was tested. Which “apparent KD of MS2 coat protein” value did it give?
A: The value was 28.4 nM.

Q: How did the “apparent KD of MS2 coat protein” value turn out when “GGUUACUCUACGGCCGCCACUGAAAAGUAAAUAUUAAUGUACAUGACAUGAGGAUCACCCAUGUACAGGACCGGGUAGUGUAACC [Tryptophan B 13]” was run?
A: The value was 108 nM.

Q: Which “apparent KD of MS2 coat protein” value does the source give for “UCGCCCAGGAAGGAUUCCUGGGAUAUGGAAGGAGCGCUGAUGCCAGCAGGUAGGUCGCCAACGGACAUGAGGAUCACCCAUGUAC [Same State - Arginine A (Freestyle 8)]” here?
A: Its value is 26.6 nM.

Q: How did the “apparent KD of MS2 coat protein” value turn out when “AAUAAACAUGAGGAUCACCCAUGUAUGGAAGGAGCGGUAAAUAAACCAGGUAGGUCGCCAGUGUGAGGGUCAUCUAUGUAAUAAA [Exclusion - Arginine A (Freestyle 1)]” was run?
A: The value was 74.9 nM.

Q: “UUUUUCGUAGGUUAUAGUUUAGAAACUGAAGGAGCGUGGUAAUACACAGGUAGGUCGCAGAUUUUACAUGAGGAUCACCCAUGUU [JR_ExcArginiA_Sub013]” was tested. Which “apparent KD of MS2 coat protein” value did it give?
A: The value was 25.1 nM.

Q: With “GGACUAACCAGAAGGAGCGGCACGCAGAAACUGCAAUUUCCUCCGCACGAGGAUCACCCGUGUCAGGUAGGUCGCUGGUUAGUCG” as the sequence, how does the “apparent KD of MS2 coat protein” value read?
A: The value was 24.5 nM.

Q: For “CGGUUUGUGAUGGAUACCAGCAGAGUGGCUGUUUAUCCUGACAUGAGGAUCACCCAUGUGUGCCCUUGGCAGCUGUUGUGGGCUG [8.aB]”, which “apparent KD of MS2 coat protein” value is on record?
A: The value was 108 nM.

Q: For “GAGAGAGGAGUGCGGCGUGUUCCGCUCCGUCGAGGACCGGUACGGCCGCCACUCGACAUGAGGAUCACCCAUGUCCUCUCUCGCG [#1 Exclusion - Tryptophan A Attempt #4 (HarryS)]”, which “apparent KD of MS2 coat protein” value is on record?
A: Its value is 42.1 nM.

Q: “GUUAUAUACUCGGCCGCCACUGAGAGAGUCAUGUAAACAUGAGGAUCACCCAUGUAAUAUAUAUACAGGACCGGGAGUAUAGUAA [4.D]” was tested. Which “apparent KD of MS2 coat protein” value did it give?
A: Its value is 19.6 nM.

Q: With “UGUGUAAUUGUCUGGUAGAAUUAUUUGUUUCGAGGACCGGUACGGCCGCCACUCGAUAUUUACAUGAGGAUCACCCAUGUUAGCU [JR_SSTryptoA_Sub004]” as the sequence, how does the “apparent KD of MS2 coat protein” value read?
A: Its value is 14.9 nM.

Q: How did the “apparent KD of MS2 coat protein” value turn out when “AAACAGUCGGACAUGAGGAUCACCCAUGUGCGAGGACCGGUACGGCCGCCACUCGACAAGGGCGGUCCCGAAGCAAACAUACGCG [Enedquceor]” was run?
A: The value was 21.3 nM.

Q: For “UGUUUCGCGGGCGAUACCAGCUUGAUCGUACUGGCCUGGUACAUGAGGAUCACCCAUGUAAGCCCUUGGCAGCGCGCGCGAGACG [#1 Exclusion - Theophylline B Attempt #3 (HarryS)]”, which “apparent KD of MS2 coat protein” value is on record?
A: Its value is 32.4 nM.

Q: Which “apparent KD of MS2 coat protein” value does the source give for “GGUGGCGGGACUGAUACCAGCCACCACCGAUAGACCACAUGAGGAUCACCCAUGUUGGGUGGCCCUUGGCAGCAGUCUUGCUGCC [#1 Same State - Theophylline B Attempt #12 (HarryS)]” here?
A: The value was 1880 nM.

Q: Which “apparent KD of MS2 coat protein” value does the source give for “AGUAUCAGUGGAAGGAGCGUCGCGAAUGCCACAUGAGGAUCACCCAUGUCGCCUUGAGCGCGACAGGUAGGUCGCCACGGUAGGC [SS-ArgB3]” here?
A: The value was 338 nM.

Q: How did the “apparent KD of MS2 coat protein” value turn out when “GCCGCGGCCGGAAUAAACAUGGGUAAAUAACGAGGACCGGUACGGCCGCCACUCGAGAUAAAUAACAUGAGGAUCACCCAUGUAC [Exclusion Tryp A GF11]” was run?
A: The value was 123 nM.

Reference: the supplement of paper PMC9170038
